According to the supplement of paper PMC10567573:

B1: ACBD3 (parent)
chain: YVASHKIEKEEQEKKRKEEEERRR

Variants of: B1
Test: protein stability index of a GFP-peptide fusion (GPS, HEK-293T) (PSI 1-6); higher = more stable
Details: c terminus: a fixed tail appended
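Also: lentivirally expressed fusions sorted by FACS into six bins by GFP to DsRed ratio, PSI derived from sequencing read proportions per bin multiplied by bin number.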

Protein stability index of substitutions, site by site:
R16: N 2.63 | L 3 | V 2.24 | F 2.34 | D 2.76 | C 2.67 | K 2.92 | S 2.65 | W 2.27 | A 3.02 | M 3.23 | Y 2.74 | G 2.88 | H 2.4 | E 3.75 | P 2.6 | T 3.41 | I 2.69 | Q 2.94
K14: M 2.62 | W 2.69 | D 3.27 | Q 2.95 | N 2.99 | L 3 | T 2.44 | G 2.79 | I 3.21 | S 2.74 | H 2.22 | C 2.67 | Y 2.27 | V 3.09 | P 2.49
E13: P 2.02 | Q 2 | W 2.81 | N 2.52 | V 2.93 | T 2.33 | S 3.36 | M 2.04 | Y 2.41
E18: Y 1.94 | H 1.6 | A 3.07 | K 2.05 | C 2.12 | W 3.53 | S 2.22 | Q 2.43 | R 2.26 | T 2.41 | D 2.38 | V 1.95 | I 2.42 | P 2.25 | M 2.46 | N 1.85 | L 2.16
E21: Y 2.15 | H 3.13 | T 2.38 | M 2.04 | S 2.52 | K 2.35 | I 2.57 | A 1.54 | F 2.45 | R 2.04 | V 3.05 | P 2.35 | C 2.21 | W 2.67 | L 2.28 | D 2.25 | N 2.07 | G 2.03 | Q 2.37
K17: P 3.01 | I 2.35 | T 2.35 | L 3.14 | R 3.32 | Q 2.07 | S 3.09 | G 3.79 | M 2.45 | V 2.9 | W 1.84 | Y 2.06 | A 2.88 | E 2.93 | C 2.41 | H 2.74 | F 2.32 | D 2.77 | N 2.99
R22: G 2.68 | D 3.24 | N 3.14 | A 2.45 | P 2.72 | H 2.42 | K 2.69 | E 3.02 | M 2.76 | Q 3.11 | I 3.59 | F 2.5 | L 1.89 | C 2.69
E19: L 2.39 | R 2.25 | N 1.94 | K 2.48 | P 1.81 | A 2.6 | Q 2.61 | G 2.03 | Y 2.38 | S 2.54 | I 3.02 | W 2.19 | T 2.57 | D 2.74 | V 2.59 | M 1.98 | H 2.44 | F 2.68 | C 2.53
K15: V 2.74 | E 3.07 | W 3.36 | R 2.69 | Q 3.15 | D 2.73 | S 2.79 | P 2.4 | Y 2.16 | L 2.2 | C 2.09 | H 3.06 | N 2.62 | I 2.39 | G 2.71 | F 2.06 | A 3.27 | M 2.6
E20: Y 1.58 | C 3.17 | R 1.91 | L 1.71 | G 1.96 | T 2.57 | N 2.56 | M 2.48 | V 1.82 | H 2.39 | D 2.63 | I 2.58 | K 2.83 | S 2.62 | P 1.98 | F 2.5 | Q 2.36 | A 2.81
